For data set [1], the target named is T1, ADAMTS6 C-terminal region (human, UniProt Q9UKP5-1 558-1117).
T1 construct: human ADAMTS6 variant 1, C-terminal region starting at the 1st TSR domain, residues 558-1117; The text calls it monomeric; also called C-terminal ADAMTS6; C-terminal fragment of ADAMTS6; source: 293-EBNA cells (pCEP-pu/AC7), purified (IMAC, 0.5 M NaCl)
T1 sequence (looked up): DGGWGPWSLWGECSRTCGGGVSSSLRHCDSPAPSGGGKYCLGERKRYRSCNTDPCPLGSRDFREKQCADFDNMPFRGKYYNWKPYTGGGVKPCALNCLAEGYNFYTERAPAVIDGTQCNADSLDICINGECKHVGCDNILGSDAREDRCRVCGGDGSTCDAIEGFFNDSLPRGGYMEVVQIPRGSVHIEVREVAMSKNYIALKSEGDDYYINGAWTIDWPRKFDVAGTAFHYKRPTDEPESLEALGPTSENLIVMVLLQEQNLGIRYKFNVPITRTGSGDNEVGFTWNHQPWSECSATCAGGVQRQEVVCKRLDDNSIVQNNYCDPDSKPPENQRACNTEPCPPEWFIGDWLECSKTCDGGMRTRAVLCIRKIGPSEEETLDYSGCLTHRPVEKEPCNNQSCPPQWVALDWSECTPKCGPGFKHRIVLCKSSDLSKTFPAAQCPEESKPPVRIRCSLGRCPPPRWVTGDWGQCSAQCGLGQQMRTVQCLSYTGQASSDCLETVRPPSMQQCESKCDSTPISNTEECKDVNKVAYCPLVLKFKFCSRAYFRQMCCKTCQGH
The data set is described as follows: SPR; Biacore; ADAMTS protein (full-length or C-terminal region) immobilised by amine coupling on CM5 (~3000 RU); analyte injected at 30 ul/min; 10 mM HEPES pH 7.4, 0.1 M NaCl, 0.5 mM CaCl2, 0.005% P20; 1:1 kinetics or equilibrium analysis. To be noted: both partners purified. A general note: SPR reads the build-up and loss of mass on a sensor chip optically.

For data set [2], the target named is T1, ADAMTS6 C-terminal region. The data set is described as follows: SPR; Biacore; syndecan-4 ectodomain immobilised, ADAMTS C-terminal regions injected; 10 mM HEPES pH 7.4, 0.1 M NaCl, 0.5 mM CaCl2, 0.005% P20. Conditions: both partners purified.
Data set [3] concerns the target T2, ADAMTS10 C-terminal region (human, UniProt Q9H324 547-1103).
T2 construct: human ADAMTS10 variant 1, C-terminal region starting at the 1st TSR domain, residues 547-1103; also called C-terminal ADAMTS10; source: 293-EBNA cells (pCEP-pu/AC7), purified (IMAC, 0.5 M NaCl)
T2 sequence (looked up): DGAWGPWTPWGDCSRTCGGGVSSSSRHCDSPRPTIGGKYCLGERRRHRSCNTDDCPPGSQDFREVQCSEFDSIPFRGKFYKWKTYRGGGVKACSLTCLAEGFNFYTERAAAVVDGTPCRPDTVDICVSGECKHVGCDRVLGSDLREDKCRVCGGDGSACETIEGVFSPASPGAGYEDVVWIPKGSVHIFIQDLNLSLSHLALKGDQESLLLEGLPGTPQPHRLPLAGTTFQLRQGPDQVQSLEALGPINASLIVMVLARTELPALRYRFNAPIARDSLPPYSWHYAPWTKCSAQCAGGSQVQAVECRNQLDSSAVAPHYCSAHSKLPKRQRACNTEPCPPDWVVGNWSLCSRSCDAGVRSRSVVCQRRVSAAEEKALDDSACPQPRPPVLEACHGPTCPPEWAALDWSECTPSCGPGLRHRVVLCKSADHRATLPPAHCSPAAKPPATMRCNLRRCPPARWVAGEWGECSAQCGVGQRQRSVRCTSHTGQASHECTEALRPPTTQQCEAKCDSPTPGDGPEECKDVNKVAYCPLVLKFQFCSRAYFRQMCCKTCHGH
The description is as above. To be noted: both partners purified.

Data set [4] deals with the molecule itself. The data set is described as follows: SDS-PAGE and western blot (SDS-resistant dimer); purified syndecan-4 ectodomain treated with heparinases I, II, III; anti-syndecan-4 blot; with or without ADAMTS6 overnight at 37 °C. In general terms: A western blot detects proteins with antibodies after separation by electrophoresis.

Here are results for 2 molecules from publication PMC5078793, “ADAMTS-10 and -6 differentially regulate cell-cell junctions and focal adhesions” (Scientific Reports, 2016).

By Kd is commonly meant the concentration at which binding is half-saturated.

B1: fibrillin-1 Ex6–11 fragment (domain or fragment)
chain: not shown
notes: human fibrillin-1, domains encoded by exons 6-11; source: 293-EBNA cells (pCEP-pu/AC7), purified (IMAC, size-exclusion chromatography)
As to B1, binding in data set [1] was characterised by a dissociation constant (Kd) of 2.4 ± 1.2 nM.

B2: syndecan-4 ectodomain (domain or fragment, human (cloned from ARPE-19A RNA), UniProt P31431 19-143, looked up)
chain: ESIRETEVIDPQDLLEGRYFSGALPDDEDVVGPGQESDDFELSGSGDLDDLEDSMIGPEVVHPLVPLDNHIPERAGSGSQVPTEPKKLEENEVIPKRISPVEESEDVSNKVSMSSTVQGSNIFER
modifications: the recombinant protein is modified with heparin chains
notes: syndecan-4 ectodomain cloned from RNA of ARPE-19A cells, residues 19-143 (ESI....IFE); Carries heparan sulphate chains in the SPR; also called Syn4 EC; syndecan-4 extracellular domain; source: 293-EBNA cells (pCEP-pu/AC7), purified (IMAC, size-exclusion chromatography)
Consider B2, for which the Kd in data set [2] came to 12.9 ± 4 nM; in data set [3], 14 ± 1.1 nM. Moreover, the binding result in data set [4] was “binds”.
